Data from PMC5515730 (Nature Structural & Molecular Biology, 2016).

Biological target: the molecule itself
Assay: cryo-EM structure

B1: HCoV-NL63 spike (S) glycoprotein ectodomain fused to a GCN4 trimerization motif (domain or fragment)
chain: FFTCNSNANLSMLQLGVPDNSSTIVTGLLPTHWFCANQSTSVYSANGFFYIDVGNHRSAFALHTGYYDANQYYIYVTNEIGLNASVTLKICKFSRNTTFDFLSNASSSFDCIVNLLFTEQLGAPLGITISGETVRLHLYNVTRTFYVPAAYKLTKLSVKCYFNYSCVFSVVNATVTVNVTTHNGRVVNYTVCDDCNGYTDNIFSVQQDGRIPNGFPFNNWFLLTNGSTLVDGVSRLYQPLRLTCLWPVPGLKSSTGFVYFNATGSDVNCNGYQHNSVVDVMRYNLNFSANSLDNLKSGVIVFKTLQYDVLFYCSNSSSGVLDTTIPFGPSSQPYYCFINSTINTTHVSTFVGILPPTVREIVVARTGQFYINGFKYFDLGFIEAVNFNVTTASATDFWTVAFATFVDVLVNVSATNIQNLLYCDSPFEKLQCEHLQFGLQDGFYSANFLDDNVLPETYVALPIYYQHTDINFTATASFGGSCYVCKPHQVNISLNGNTSVCVRTSHFSIRYIYNRVKSGSPGDSSWHIYLKSGTCPFSFSKLNNFQKFKTICFSTVEVPGSCNFPLEATWHYTSYTIVGALYVTWSEGNSITGVPYPVSGIREFSNLVLNNCTKYNIYDYVGTGIIRSSNQSLAGGITYVSNSGNLLGFKNVSTGNIFIVTPCNQPDQVAVYQQSIIGAMTAVNESRYGLQNLLQLPNFYYVSNGGNNCTTAVMTYSNFGICADGSLIPVRPRNSSDNGISAIITANLSIPSNWTTSVQVEYLQITSTPIVVDCATYVCNGNPRCKNLLKQYTSACKTIEDALRLSAHLETNDVSSMLTFDSNAFSLANVTSFGDYNLSSVLPQRNIRSSRIAGRSALEDLLFSKVVTSGLGTVDVDYKSCTKGLSIADLACAQYYNGIMVLPGVADAERMAMYTGSLIGGMVLGGLTSAAAIPFSLALQARLNYVALQTDVLQENQKILAASFNKAINNIVASFSSVNDAITQTAEAIHTVTIALNKIQDVVNQQGSALNHLTSQLRHNFQAISNSIQAIYDRLDSIQADQQVDRLITGRLAALNAFVSQVLNKYTEVRGSRRLAQQKINECVKSQSNRYGFCGNGTHIFSIVNSAPDGLLFLHTVLLPTDYKNVKAWSGICVDGIYGYVLRQPNLVLYSDNGVFRVTSRVMFQPRLPVLSDFVQIYNCNVTFVNISRVELHTVIPDYVDVNKTLQEFAQNLPKYVKPNFDLTPFNLTYLNLSSELKQLEAKTASLFQTTVELQGLIDQINSTYVDLKLLNRFENLIKRMKQIEDKIEEIESKQKKIENEIARIKKIKLVPRGSLE
modifications: N-linked glycans (glycosylation shown at 34 of 39 NXS/T sequons; paucimannosidic or high-mannose)
stoichiometry N: 3
